Here are results for one substance from patent EP4365192A1.

Experiment [1] has as its target Recombinant Human FGFR1 alpha (IIIc) Fc Chimera Protein (R&D systems, 658-FR-050) (human) (UniProt P11362). The experiment can be described thus: ELISA: FGFR1 alpha (IIIc)-Fc coated at 0.5 ug/ml; FGF sample at 80 ng/mL after 0 h at 37°C; detected with biotinylated anti-FGF antibody BAM233 and streptavidin-HRP; blank subtracted.
For experiment [2] the target is unchanged. In words: ELISA: FGFR1 alpha (IIIc)-Fc coated at 0.5 ug/ml; FGF sample at 80 ng/mL after 48 h at 37°C; detected with biotinylated anti-FGF antibody BAM233 and streptavidin-HRP; blank subtracted. In general terms: An ELISA detects its analyte on a solid surface through an enzyme-linked reagent.
For experiment [3] the target is unchanged. The experiment can be described thus: ELISA: FGFR1 alpha (IIIc)-Fc coated at 0.5 ug/ml; FGF sample at 80 ng/mL after 6 h at 37°C; detected with biotinylated anti-FGF antibody BAM233 and streptavidin-HRP; blank subtracted.
Experiment [4] has the same target. In words: ELISA: FGFR1 alpha (IIIc)-Fc coated at 0.5 ug/ml; FGF sample at 80 ng/mL after 24 h at 37°C; detected with biotinylated anti-FGF antibody BAM233 and streptavidin-HRP; blank subtracted.

Recombinant Human FGFR1 alpha (IIIc) Fc Chimera Protein (R&D systems, 658-FR-050) (human), sequence (P11362 22-376, change not shown): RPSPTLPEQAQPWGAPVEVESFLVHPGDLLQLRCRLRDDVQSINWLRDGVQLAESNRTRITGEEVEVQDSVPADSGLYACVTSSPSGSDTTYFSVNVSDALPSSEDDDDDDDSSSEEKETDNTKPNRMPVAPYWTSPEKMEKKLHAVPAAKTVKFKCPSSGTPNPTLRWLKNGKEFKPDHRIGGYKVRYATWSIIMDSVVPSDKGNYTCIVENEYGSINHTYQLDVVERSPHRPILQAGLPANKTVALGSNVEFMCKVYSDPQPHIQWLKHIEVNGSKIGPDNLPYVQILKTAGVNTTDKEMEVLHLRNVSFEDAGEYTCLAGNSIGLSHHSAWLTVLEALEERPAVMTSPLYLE

Take “FGF301 (FGF2_native_Pig) (from UniProt P03969 10-155) (ligand)”: the Absorbance (450 nm) (absorbance (450 nm)) in experiment [1] was 2.3; in experiment [2] it was 0.8; in experiment [3], 2.1; in experiment [4], 1.5.
